Test results reported in article PMC7567103 (Nature Communications, 2020).
Blank lines part the entries; values can stand above or below the molecule they belong to. Where no end group is shown, it is not given here.

How the values were obtained:
GHRHR(23-423) (human) = GHRHR(23-423) (human) (UniProt Q02643)
[1] = target: HA-Flag-GHRHR T213A (human) (UniProt Q02643)
[2] = target: HA-Flag-GHRHR K182A (human) (UniProt Q02643)
[3] = target: HA-Flag-GHRHR N346A (human) (UniProt Q02643)
[4] = target: HA-Flag-GHRHR W282A (human) (UniProt Q02643)
[5] = target: HA-Flag-GHRHR F187A (human) (UniProt Q02643)
[6] = target: HA-Flag-GHRHR C195A (human) (UniProt Q02643)
[7] = target: GHRHR(23-423) (WT) (human) (UniProt Q02643)
[8] = target: HA-Flag-GHRHR H210A (human) (UniProt Q02643)
[9] = target: HA-Flag-GHRHR R357A (human) (UniProt Q02643)
GHRHR WT = experiment: cAMP accumulation, GHRH vs GHRH(D3A) (Supplementary Fig. 6c); format: cell-based, human; conditions: D3A in GHRH; WT receptor
Description: GHRH-stimulated cAMP accumulation was measured by a LANCE Ultra cAMP kit (PerkinElmer). Briefly, 24 h after transfection with GHRHR(23-423), GHRHR(23-405), GHRHR(23-405)-LgBiT-2MBP, or HA-Flag-GHRHR (WT and mutants), HEK 293 T cells (3000/well in 384-well white plates, PerkinElmer) were digested by 0.2% (w/v) EDTA and 5 μL stimulation buffer (HBSS supplemented with 5 mM HEPES, 0.5 mM IBMX, and 0.1% (w/v) BSA, pH 7.4). Different concentrations (5 μL) of GHRH were then added and the stimulation lasted for 30 min at RT. The reaction was stopped by adding 5 μL Eu-cAMP tracer and 5 μL ULight-anti-cAMP. After 1 h RT incubation, TR-FRET signals (excitation: 320 nm, emission: 615 and 665 nm) were measured by an EnVision (PerkinElmer).

HA-Flag-GHRHR F187A = target: T1, HA-Flag-GHRHR F187A (human, UniProt Q02643 23-423, F187^ECL1A); experiment: cell-based or functional assay
T1 sequence (looked up): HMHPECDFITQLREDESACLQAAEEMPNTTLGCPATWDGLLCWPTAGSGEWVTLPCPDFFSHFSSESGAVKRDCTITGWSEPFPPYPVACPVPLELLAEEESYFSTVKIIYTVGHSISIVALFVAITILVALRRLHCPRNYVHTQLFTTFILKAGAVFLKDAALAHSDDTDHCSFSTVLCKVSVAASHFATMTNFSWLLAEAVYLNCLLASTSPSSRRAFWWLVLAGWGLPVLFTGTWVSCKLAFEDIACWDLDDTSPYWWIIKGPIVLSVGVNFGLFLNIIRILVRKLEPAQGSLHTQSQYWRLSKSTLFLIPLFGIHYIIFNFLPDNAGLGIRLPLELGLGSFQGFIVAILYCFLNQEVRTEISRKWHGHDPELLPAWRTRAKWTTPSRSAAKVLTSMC

HA-Flag-GHRHR R357C = target: T2, HA-Flag-GHRHR R357C (human, UniProt Q02643 23-423, R357C); experiment: cell-based or functional assay
T2 sequence (looked up): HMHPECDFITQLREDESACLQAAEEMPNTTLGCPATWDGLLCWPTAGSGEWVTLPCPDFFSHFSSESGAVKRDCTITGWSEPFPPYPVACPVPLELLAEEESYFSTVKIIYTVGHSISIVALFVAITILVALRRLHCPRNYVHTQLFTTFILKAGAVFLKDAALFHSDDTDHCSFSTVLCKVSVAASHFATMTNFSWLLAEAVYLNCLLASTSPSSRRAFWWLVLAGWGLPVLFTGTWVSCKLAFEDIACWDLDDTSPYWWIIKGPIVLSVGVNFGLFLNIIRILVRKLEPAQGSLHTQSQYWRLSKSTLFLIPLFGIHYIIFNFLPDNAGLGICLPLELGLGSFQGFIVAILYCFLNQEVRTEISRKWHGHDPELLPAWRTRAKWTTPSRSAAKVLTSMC

HA-Flag-GHRHR C195A = target: T3, HA-Flag-GHRHR C195A (human, UniProt Q02643 23-423, C195^ECL1A); experiment: cell-based or functional assay
T3 sequence (looked up): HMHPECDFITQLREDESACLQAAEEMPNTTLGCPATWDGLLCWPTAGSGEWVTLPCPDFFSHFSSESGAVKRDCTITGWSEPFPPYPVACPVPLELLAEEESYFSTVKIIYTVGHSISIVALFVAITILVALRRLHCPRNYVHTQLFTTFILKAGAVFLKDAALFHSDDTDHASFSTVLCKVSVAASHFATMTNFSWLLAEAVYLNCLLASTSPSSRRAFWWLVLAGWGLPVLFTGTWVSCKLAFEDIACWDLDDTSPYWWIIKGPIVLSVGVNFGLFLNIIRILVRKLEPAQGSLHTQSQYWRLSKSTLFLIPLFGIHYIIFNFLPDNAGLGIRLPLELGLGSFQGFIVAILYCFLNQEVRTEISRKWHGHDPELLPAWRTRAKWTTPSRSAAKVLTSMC

HA-Flag-GHRHR K182A = target: T4, HA-Flag-GHRHR K182A (human, UniProt Q02643 23-423, K182^2.67bA); experiment: cell-based or functional assay
T4 sequence (looked up): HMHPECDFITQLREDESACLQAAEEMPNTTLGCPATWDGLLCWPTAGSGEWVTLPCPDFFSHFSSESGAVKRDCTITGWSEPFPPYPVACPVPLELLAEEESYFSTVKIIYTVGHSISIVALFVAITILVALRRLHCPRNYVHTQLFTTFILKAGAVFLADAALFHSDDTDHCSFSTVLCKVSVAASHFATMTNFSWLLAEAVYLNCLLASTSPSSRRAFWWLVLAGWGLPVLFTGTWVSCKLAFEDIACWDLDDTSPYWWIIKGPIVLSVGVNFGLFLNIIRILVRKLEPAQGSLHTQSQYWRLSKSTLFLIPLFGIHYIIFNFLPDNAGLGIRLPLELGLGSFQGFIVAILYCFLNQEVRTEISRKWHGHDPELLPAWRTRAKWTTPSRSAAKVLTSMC

Molecule: GHRH D^3PA (peptide)
cAMP accumulation in HEK 293 T cells: fold loss of potency (GHRHR(23-423) (human)): 4 fold

Molecule: GHRH(D3A): GHRH with Asp3 replaced by Ala (YAAAIFTNSYRKVLGQLSARKLLQDIMSRQQGESNQERGARARL; ends and bridges not checked; UniProt P01286 32-75, looked up, variant D3A)
diminished potency vs GHRH (GHRHR WT): ~ 4 fold

Continued, values first:

Supplementary Table 4, T213A: pEC50 of GHRH-induced cAMP accumulation, HEK 293T cells [1]: 9.35 -log M | Supplementary Table 4, K182A: pEC50 of GHRH-induced cAMP accumulation, HEK 293T cells [2]: 7.4 -log M | Supplementary Table 4, N346A: pEC50 of GHRH-induced cAMP accumulation, HEK 293T cells [3]: 8.85 -log M | Supplementary Table 4, W282A: pEC50 of GHRH-induced cAMP accumulation, HEK 293T cells [4]: 7.88 -log M | Supplementary Table 4, F187A: pEC50 of GHRH-induced cAMP accumulation, HEK 293T cells [5]: 8.94 -log M | Supplementary Table 4, C195A: pEC50 of GHRH-induced cAMP accumulation, HEK 293T cells [6]: 7.67 -log M | Supplementary Table 4, Wild-type: pEC50 of GHRH-induced cAMP accumulation, HEK 293T cells [7]: 9.74 -log M | Supplementary Table 4, H210A: pEC50 of GHRH-induced cAMP accumulation, HEK 293T cells [8]: 9 -log M | Supplementary Table 4, R357A: pEC50 of GHRH-induced cAMP accumulation, HEK 293T cells [9]: 6.87 -log M
Molecule: growth hormone-releasing hormone (GHRH) (from UniProt P01286 32-75) (peptide)

cAMP accumulation in HEK 293 T cells: fold loss of GHRH potency (HA-Flag-GHRHR F187A): ~5 fold | cAMP accumulation in HEK 293 T cells: fold loss of GHRH potency (HA-Flag-GHRHR R357C): 1000 fold | cAMP accumulation in HEK 293 T cells: fold loss of GHRH potency (HA-Flag-GHRHR C195A): ~100 fold | cAMP accumulation in HEK 293 T cells: fold loss of GHRH potency (HA-Flag-GHRHR K182A): ~200 fold
Molecule: YADAIFTNSYRKVLGQLSARKLLQDIMSRQQGESNQERGARARL (peptide, UniProt P01286 32-75, looked up) [Growth hormone-releasing hormone (GHRH)]
